Experiment [1] concerns the target T1, ADP-ribosyl cyclase 2 (CD157; BST1) (human, UniProt Q10588 33-293).
T1 construct: Endogenous lipid-anchored BST1 on human cell lines (A549, H226, U937) and on AML patient blasts; also called Bone marrow stromal antigen 1; cell-surface human BST1
T1 sequence: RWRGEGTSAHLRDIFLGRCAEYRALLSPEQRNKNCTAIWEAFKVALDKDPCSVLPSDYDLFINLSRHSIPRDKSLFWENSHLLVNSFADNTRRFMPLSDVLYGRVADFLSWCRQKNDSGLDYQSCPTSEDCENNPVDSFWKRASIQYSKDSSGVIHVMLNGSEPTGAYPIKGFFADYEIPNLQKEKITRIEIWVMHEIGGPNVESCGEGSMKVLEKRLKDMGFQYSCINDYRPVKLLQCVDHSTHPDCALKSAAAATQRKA
Description: flow cytometry on BST1-expressing H226 and A549 cells, PE-labelled secondary antibody, geometric mean fluorescence; single antibody dilution, concentration not given. The protocol:
(§1) The specificity of antibodies against the BST1 selected in Example 2 was tested by flow cytometry. To test the ability of the antibodies to bind to the cell surface BST1 protein, the antibodies were incubated with the BST1-expressing cells, A549 and H226, from human lung adenocarcinoma and human lung squamous carcinoma, respectively. Cells were washed in FACS buffer (DPBS, 2% FBS), centrifuged and resuspended in 100 μl of the diluted primary BST1 antibody (also diluted in FACS buffer). The antibody-A549 complex was incubated on ice for 60 min and then washed twice with FACS buffer as described above. The cell-antibody pellet was resuspended in 100 μl of the diluted secondary antibody (also diluted in FACS buffer) and incubated on ice for 60 min on ice. The pellet was washed as before and resuspended in 200 μl FACS buffer. The samples were loaded onto the BD FACScanto II flow sytometer and the data analyzed using the BD FACSdiva software.
In general terms: In flow cytometry, cells or beads pass a laser one at a time.

The subject of experiment [2] is A549 cells. The experiment is described as follows: MabZAP internalization assay, A549 cells. It is filed as cell-based. The note with it: compared to anti-human IgG isotype control. The protocol:
(§2) Internalization of BST1_A1 and BST1_A2 by H226 and A549 were investigated using a MabZap assay. […] (Advanced Targeting System, San Diego, Calif., IT-22-100). First, BST1 Fab was bound to the surface of the cells. Then, the MabZAP antibodies were bound to the primary antibodies. Next, the MabZAP complex was internalized by the cells.
(§3) The MabZAP assay was conducted as follows. Each of the cells was seeded at a density of 5×10^3 cells per well. The anti-BST1 monoclonal antibody or an isotype control human IgG was serially diluted then added to the cells and incubated for 15 min at 25° C. The MabZAP was then added and incubated for 72 hr at 37° C. Cell viability in the plates was detected by CellTiter-Glo® Luminescent Cell Viability Assay kit (Promega, G7571) and the plates were read and analysed using Promega Glomax. Cell death was proportional to the concentration of anti-BST1 monoclonal antibodies.

In experiment [3] the test system is H226 cells. Description: MabZAP internalization assay, H226 cells. The settings on record: compared to anti-human IgG isotype control. In kind it is cell-based. The protocol: as §2, §3
Experiment [4] deals with T2, cell surface BST1 protein (Homo sapiens, UniProt Q10588).
T2 construct: the antibodies were incubated with the BST1-expressing cells, A549 and H226, from human lung adenocarcinoma and human lung squamous carcinoma; endogenous in cells; host or cells: A549 (human lung adenocarcinoma) and H226 (human lung squamous carcinoma)
T2 sequence (Q10588 33-293): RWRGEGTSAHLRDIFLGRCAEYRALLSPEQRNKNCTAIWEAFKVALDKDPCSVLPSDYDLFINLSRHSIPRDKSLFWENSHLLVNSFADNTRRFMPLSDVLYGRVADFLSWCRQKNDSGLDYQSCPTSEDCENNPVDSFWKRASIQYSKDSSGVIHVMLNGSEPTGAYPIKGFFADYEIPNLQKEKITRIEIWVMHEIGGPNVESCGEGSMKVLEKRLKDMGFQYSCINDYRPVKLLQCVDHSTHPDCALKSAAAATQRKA
Description: Flow cytometry binding of anti-BST1 antibodies to BST1-expressing cells. The settings on record: A549 and H226 cells. The protocol:
as §1

B1: BST1_A1 (Fab, V domains shown)
VH: QVKLQQSGAELVRPGSSVKISCKASGYAFSNSWINWVKQRPGQGLEWIGQIYPGDYDTNYNGKFKGKATLTADYSSSTAYMQLNSLTSEDSAVYFCARGGSIYYGNLGFFDVWGAGTTVTVSS
VL: EMVLTQSPAIMSTSLGERVTMTCTASSRVSSSYLHWYQQKPGSSPKLWIYSTSNLASGVPARFSGSGSGTSYSLTISSMEAEDAATYYCHQYHRSPYTFGGGTKLEIKR
notes: also called anti-BST1 monoclonal antibody BST1_A1
With B1, the binding result in experiment [1] is “binds”.

B2: BST1_A3 (Fab, V domains shown)
VH: QVQLQQSRAELVMPGASVKMSCKTSGYTFSDYWVHWVRQRPGQGLEWIGAIDGSDTFNDYSQKFKGRATLTVDESSSTVYMQLSSLTSEDSAVYYCARGGLLQYWGQGTTLTVSS
VL: DIQLTQSPASLSASVGETVTITCRASENIYSYLAWYQQKQGKSPQLLVYNTKTLGEGVPSRFSGSGSGTQFSLKINSLQPEDFGSYYCQHHYGTPFTFGSGTKLEIKR
As for B2, the binding result in experiment [1] is “binds”.

B3: BST1_A2 (murine, as selected in Example 2) (Fab, V domains shown)
VH: QAYLQQSGPELVKAGASVKMSCKASGYSFIEYTINWVKQSHGKSLEWIGNIDPYYGTTYYNQMFTGKATLTVDQSSNTAYMQLKSLTSEDSAVYFCARGSAWFPYWGQGTLVTVSA
VL: DIVMSQSPAIMSASPGEKVTMTCSASSSVTYMYWYQQKPGSSPRLLIYDTSNLASGVPVRFSGSGSGTSYSLTISRMEAEDTATYYCQQWSNYPLTFGAGTKLELKR
notes: also called anti-BST1 monoclonal antibody BST1_A2
Take B3: the binding result in experiment [1] is recorded as “binds”.

B4: BST1_A1: anti-BST1 monoclonal antibody, VH SEQ ID NO: 1, VK SEQ ID NO: 3, murine VH 1-80 / VK 4-74 (antibody, listed as Mus musculus)
heavy: MKQSTIALALLPLLFTPVAKAQVKLQQSGAELVRPGSSVKISCKASGYAFSNSWINWVKQRPGQGLEWIGQIYPGDYDTNYNGKFKGKATLTADYSSSTAYMQLNSLTSEDSAVYFCARGGSIYYGNLGFFDVWGAGTTVTVSSAKTTPPSVYPLAPGSAAQTNSMVTLGCLVKGYFPEPVTVTWNSGSLSSGVHTFPAVLQSDLYTLSSSVTVPSSTWPSETVTCNVAHPASSTKVDKKIVPRDCHHHHHHH
light: MKYLLPTAAAGLLLLAAQPAMAEMVLTQSPAIMSTSLGERVTMTCTASSRVSSSYLHWYQQKPGSSPKLWIYSTSNLASGVPARFSGSGSGTSYSLTISSMEAEDAATYYCHQYHRSPYTFGGGTKLEIKRADAAPTVSIFPPSSEQLTSGGASVVCFLNNFYPKDINVKWKIDGSERQNGVLNSWTDQDSKDSTYSMSSTLTLTKDEYERHNSYTCEATHKTSTSPIVKSFNRNES
As for B4, the “internalization (MabZAP)” value in experiment [2] and in experiment [3] was “efficiently internalized” each time. The “binding to cell-surface human BST1” value in experiment [4] is “bound effectively”.

B5: BST_A3: anti-BST1 monoclonal antibody, VH SEQ ID NO: 52, VK SEQ ID NO: 53 (antibody, listed as Mus musculus)
heavy: MKQSTIALALLPLLFTPVAKAQVQLQQSRAELVMPGASVKMSCKTSGYTFSDYWVHWVRQRPGQGLEWIGAIDGSDTFNDYSQKFKGRATLTVDESSSTVYMQLSSLTSEDSAVYYCARGGLLQYWGQGTTLTVSSAKTTPPSVYPLAPGSAAQTNSMVTLGCLVKGYFPEPVTVTWNSGSLSSGVHTFPAVLQSDLYTLSSSVTVPSSTWPSETVTCNVAHPASSTKVDKKIVPRDCHHHHHHH
light: MKYLLPTAAAGLLLLAAQPAMADIQLTQSPASLSASVGETVTITCRASENIYSYLAWYQQKQGKSPQLLVYNTKTLGEGVPSRFSGSGSGTQFSLKINSLQPEDFGSYYCQHHYGTPFTFGSGTKLEIKRADAAPTVSIFPPSSEQLTSGGASVVCFLNNFYPKDINVKWKIDGSERQNGVLNSWTDQDSKDSTYSMSSTLTLTKDEYERHNSYTCEATHKTSTSPIVKSFNRNES
Consider B5, for which the “binding to cell-surface human BST1” value in experiment [4] was “bound effectively”.

These data come from patent US20200231694A1, “PHARMACEUTICAL COMBINATIONS COMPRISING AN ANTI-BST-1 ANTIBODY AND A CYTIDINE ANALOGUE” (BERLIN-CHEMIE AG, priority 2017, published 2020).
